Data from IntAct's records for PubMed 35512704.

B1: Speckle-type POZ protein (Homo sapiens), O43791 (parent)
chain: MSRVPSPPPPAEMSSGPVAESWCYTQIKVVKFSYMWTINNFSFCREEMGEVIKSSTFSSGANDKLKWCLRVNPKGLDEESKDYLSLYLLLVSCPKSEVRAKFKFSILNAKGEETKAMESQRAYRFVQGKDWGFKKFIRRDFLLDEANGLLPDDKLTLFCEVSVVQDSVNISGQNTMNMVKVPECRLADELGGLWENSRFTDCCLCVAGQEFQAHKAILAARSPVFSAMFEHEMEESKKNRVEINDVEPEVFKEMMCFIYTGKAPNLDKMADDLLAAADKYALERLKVMCEDALCSNLSVENAAEILILADLHSADQLKTQAVDFINYHASDVLETSGWKSMVVSHPHLVAEAYRSLASAQCPFLGPPRKRLKQS
partner: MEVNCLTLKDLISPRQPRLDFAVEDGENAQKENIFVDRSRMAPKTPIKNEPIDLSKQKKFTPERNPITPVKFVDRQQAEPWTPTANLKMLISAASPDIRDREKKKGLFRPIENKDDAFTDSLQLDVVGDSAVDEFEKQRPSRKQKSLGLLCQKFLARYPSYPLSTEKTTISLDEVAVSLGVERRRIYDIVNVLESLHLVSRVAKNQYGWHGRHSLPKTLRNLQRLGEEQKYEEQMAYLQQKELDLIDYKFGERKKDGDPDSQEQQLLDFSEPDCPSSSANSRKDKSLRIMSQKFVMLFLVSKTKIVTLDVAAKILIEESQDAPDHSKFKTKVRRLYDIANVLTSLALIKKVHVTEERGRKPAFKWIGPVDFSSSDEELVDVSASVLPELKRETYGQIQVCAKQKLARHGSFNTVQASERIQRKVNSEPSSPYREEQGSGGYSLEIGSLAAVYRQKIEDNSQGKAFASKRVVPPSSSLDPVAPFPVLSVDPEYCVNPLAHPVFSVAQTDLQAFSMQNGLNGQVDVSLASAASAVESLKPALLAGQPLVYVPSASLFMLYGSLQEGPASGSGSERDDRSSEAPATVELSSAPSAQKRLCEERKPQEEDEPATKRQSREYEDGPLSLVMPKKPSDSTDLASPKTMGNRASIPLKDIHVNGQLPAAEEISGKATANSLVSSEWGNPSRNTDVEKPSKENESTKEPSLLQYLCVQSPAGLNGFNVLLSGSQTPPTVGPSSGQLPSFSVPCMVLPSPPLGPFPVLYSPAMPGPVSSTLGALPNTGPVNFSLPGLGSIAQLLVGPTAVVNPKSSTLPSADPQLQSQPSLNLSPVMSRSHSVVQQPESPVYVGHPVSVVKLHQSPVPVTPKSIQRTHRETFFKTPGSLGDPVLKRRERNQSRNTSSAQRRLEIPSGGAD
B2: Speckle-type POZ protein (Homo sapiens), O43791 (parent)
chain: B1 chain
partner: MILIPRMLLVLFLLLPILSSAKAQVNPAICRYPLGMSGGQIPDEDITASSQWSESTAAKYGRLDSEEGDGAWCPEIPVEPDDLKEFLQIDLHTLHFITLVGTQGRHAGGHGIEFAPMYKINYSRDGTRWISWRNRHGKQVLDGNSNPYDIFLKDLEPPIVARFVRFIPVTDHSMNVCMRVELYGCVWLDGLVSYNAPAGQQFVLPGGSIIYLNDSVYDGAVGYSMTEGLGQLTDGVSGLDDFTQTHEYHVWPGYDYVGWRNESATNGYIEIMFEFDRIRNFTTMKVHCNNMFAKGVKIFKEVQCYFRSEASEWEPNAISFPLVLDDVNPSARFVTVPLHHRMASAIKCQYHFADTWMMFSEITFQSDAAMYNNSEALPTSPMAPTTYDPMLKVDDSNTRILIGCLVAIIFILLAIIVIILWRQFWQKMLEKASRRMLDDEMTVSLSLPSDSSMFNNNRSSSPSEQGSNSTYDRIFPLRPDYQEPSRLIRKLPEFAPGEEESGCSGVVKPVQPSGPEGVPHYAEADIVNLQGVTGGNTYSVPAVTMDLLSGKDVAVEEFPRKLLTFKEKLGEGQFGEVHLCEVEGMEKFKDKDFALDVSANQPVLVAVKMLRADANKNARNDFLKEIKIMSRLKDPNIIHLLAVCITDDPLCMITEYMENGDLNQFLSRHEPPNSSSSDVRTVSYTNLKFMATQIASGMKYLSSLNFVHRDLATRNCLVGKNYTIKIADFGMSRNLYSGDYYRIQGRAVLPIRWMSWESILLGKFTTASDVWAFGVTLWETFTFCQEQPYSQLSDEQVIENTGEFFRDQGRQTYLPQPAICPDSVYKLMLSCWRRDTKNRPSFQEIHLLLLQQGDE
B3: Speckle-type POZ protein (Homo sapiens), O43791 (parent)
chain: B1 chain
partner: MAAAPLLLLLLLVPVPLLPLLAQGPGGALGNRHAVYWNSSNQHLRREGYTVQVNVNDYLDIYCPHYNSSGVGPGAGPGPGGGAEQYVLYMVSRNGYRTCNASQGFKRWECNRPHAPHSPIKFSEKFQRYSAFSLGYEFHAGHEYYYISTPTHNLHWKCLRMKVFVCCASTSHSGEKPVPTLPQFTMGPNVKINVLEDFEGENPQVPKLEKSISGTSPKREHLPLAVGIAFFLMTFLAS

Variants of: B1
Details: with e2f7_human E2F7, Q96AV8

Variant | effect of a mutation on the interaction
MSRVPSPPPPAEMSSGPVAESWCYTQIKVVKFSYMWTINNFSFCREEMGEVIKSSTFSSGANDKLKWCLRVNPKGLDEESKDYLSLCLLLVSCPKSEVRAKFKFSILNAKGEETKAMESQRAYRFVQGKDWGFKKFIRRDFLLDEANGLLPDDKLTLFCEVSVVQDSVNISGQNTMNMVKVPECRLADELGGLWENSRFTDCCLCVAGQEFQAHKAILAARSPVFSAMFEHEMEESKKNRVEINDVEPEVFKEMMCFIYTGKAPNLDKMADDLLAAADKYALERLKVMCEDALCSNLSVENAAEILILADLHSADQLKTQAVDFINYHASDVLETSGWKSMVVSHPHLVAEAYRSLASAQCPFLGPPRKRLKQS [Y87C] | with no effect

Variants of: B1
Details: with e2f7_human E2F7, Q96AV8
Remark: another data set of the same source

Variant | effect of a mutation on the interaction
MSRVPSPPPPAEMSSGPVAESWCYTQIKVVKFSYMWTINNFSFCREEMGEVIKSSTFSSGANDKLKWCLRVNPKGLDEESKDYLSLYLLLVSCPKSEVRAKCKFSILNAKGEETKAMESQRAYRFVQGKDWGFKKFIRRDFLLDEANGLLPDDKLTLFCEVSVVQDSVNISGQNTMNMVKVPECRLADELGGLWENSRFTDCCLCVAGQEFQAHKAILAARSPVFSAMFEHEMEESKKNRVEINDVEPEVFKEMMCFIYTGKAPNLDKMADDLLAAADKYALERLKVMCEDALCSNLSVENAAEILILADLHSADQLKTQAVDFINYHASDVLETSGWKSMVVSHPHLVAEAYRSLASAQCPFLGPPRKRLKQS [F102C] | with no effect

Variants of: B1
Details: with e2f7_human E2F7, Q96AV8
Remark: another data set of the same source

Variant | effect of a mutation on the interaction
MSRVPSPPPPAEMSSGPVAESWCYTQIKVVKFSYMWTINNFSFCREEMGEVIKSSTFSSGANDKLKWCLRVNPKGLDEESKDYLSLYLLLVSCPKSEVRAKFKFSILNAKGEETKAMESQRAYRFVQGKDWGLKKFIRRDFLLDEANGLLPDDKLTLFCEVSVVQDSVNISGQNTMNMVKVPECRLADELGGLWENSRFTDCCLCVAGQEFQAHKAILAARSPVFSAMFEHEMEESKKNRVEINDVEPEVFKEMMCFIYTGKAPNLDKMADDLLAAADKYALERLKVMCEDALCSNLSVENAAEILILADLHSADQLKTQAVDFINYHASDVLETSGWKSMVVSHPHLVAEAYRSLASAQCPFLGPPRKRLKQS [F133L] | with no effect

Variants of: B1
Details: with e2f7_human E2F7, Q96AV8
Remark: another data set of the same source

Variant | effect of a mutation on the interaction
MSRVPSPPPPAEMSSGPVAESWCYTQIKVVKFSYMWTINNFSFCREEMGEVIKSSTFSSGANDKLKWCLRVNPKGLDEESKDYLSLYLLLVSCPKSEVRAKFKFSILNAKGEETKAMESQRAYRFVQGKDWGVKKFIRRDFLLDEANGLLPDDKLTLFCEVSVVQDSVNISGQNTMNMVKVPECRLADELGGLWENSRFTDCCLCVAGQEFQAHKAILAARSPVFSAMFEHEMEESKKNRVEINDVEPEVFKEMMCFIYTGKAPNLDKMADDLLAAADKYALERLKVMCEDALCSNLSVENAAEILILADLHSADQLKTQAVDFINYHASDVLETSGWKSMVVSHPHLVAEAYRSLASAQCPFLGPPRKRLKQS [F133V] | with no effect

Variants of: B2
Details: with ddr2_human DDR2, Q16832

Variant | effect of a mutation on the interaction
MSRVPSPPPPAEMSSGPVAESWCYTQIKVVKFSYMWTINNFSFCREEMGEVIKSSTFSSGANDKLKWCLRVNPKGLDEESKDYLSLCLLLVSCPKSEVRAKFKFSILNAKGEETKAMESQRAYRFVQGKDWGFKKFIRRDFLLDEANGLLPDDKLTLFCEVSVVQDSVNISGQNTMNMVKVPECRLADELGGLWENSRFTDCCLCVAGQEFQAHKAILAARSPVFSAMFEHEMEESKKNRVEINDVEPEVFKEMMCFIYTGKAPNLDKMADDLLAAADKYALERLKVMCEDALCSNLSVENAAEILILADLHSADQLKTQAVDFINYHASDVLETSGWKSMVVSHPHLVAEAYRSLASAQCPFLGPPRKRLKQS [Y87C] | with no effect

Variants of: B2
Details: with ddr2_human DDR2, Q16832
Remark: another data set of the same source

Variant | effect of a mutation on the interaction
MSRVPSPPPPAEMSSGPVAESWCYTQIKVVKFSYMWTINNFSFCREEMGEVIKSSTFSSGANDKLKWCLRVNPKGLDEESKDYLSLYLLLVSCPKSEVRAKFKFSILNAKGEETKAMESQRAYRFVQGKDWGVKKFIRRDFLLDEANGLLPDDKLTLFCEVSVVQDSVNISGQNTMNMVKVPECRLADELGGLWENSRFTDCCLCVAGQEFQAHKAILAARSPVFSAMFEHEMEESKKNRVEINDVEPEVFKEMMCFIYTGKAPNLDKMADDLLAAADKYALERLKVMCEDALCSNLSVENAAEILILADLHSADQLKTQAVDFINYHASDVLETSGWKSMVVSHPHLVAEAYRSLASAQCPFLGPPRKRLKQS [F133V] | with no effect

Variants of: B3
Details: with efna3_human EFNA3, P52797

Variant | effect of a mutation on the interaction
MSRVPSPPPPAEMSSGPVAESWCYTQIKVVKFSYMWTINNFSFCREEMGEVIKSSTFSSGANDKLKWCLRVNPKGLDEESKDYLSLYLLLVSCPKSEVRAKFKFSILNAKGEETKAMESQRAYRFVQGKDWGVKKFIRRDFLLDEANGLLPDDKLTLFCEVSVVQDSVNISGQNTMNMVKVPECRLADELGGLWENSRFTDCCLCVAGQEFQAHKAILAARSPVFSAMFEHEMEESKKNRVEINDVEPEVFKEMMCFIYTGKAPNLDKMADDLLAAADKYALERLKVMCEDALCSNLSVENAAEILILADLHSADQLKTQAVDFINYHASDVLETSGWKSMVVSHPHLVAEAYRSLASAQCPFLGPPRKRLKQS [F133V] | with no effect

Variants of: B3
Details: with efna3_human EFNA3, P52797
Remark: another data set of the same source

Variant | effect of a mutation on the interaction
MSRVPSPPPPAEMSSGPVAESWCYTQIKVVKFSYMWTINNFSFCREEMGEVIKSSTFSSGANDKLKWCLRVNPKGLDEESKDYLSLYLLLVSCPKSEVRAKFKFSILNAKGEETKAMESQRAYRFVQGKDWGLKKFIRRDFLLDEANGLLPDDKLTLFCEVSVVQDSVNISGQNTMNMVKVPECRLADELGGLWENSRFTDCCLCVAGQEFQAHKAILAARSPVFSAMFEHEMEESKKNRVEINDVEPEVFKEMMCFIYTGKAPNLDKMADDLLAAADKYALERLKVMCEDALCSNLSVENAAEILILADLHSADQLKTQAVDFINYHASDVLETSGWKSMVVSHPHLVAEAYRSLASAQCPFLGPPRKRLKQS [F133L] | with no effect
